{"source": "patent US20060110789A1", "about": "“Methods to mediate polyketide synthase module effectiveness” (priority 2002, published 2006)", "key": {"[1]": {"target": "(5)M6+TE (module 6 of DEBS with the N-terminal linker of module 5, with thioesterase) (UniProt Q03133)", "test": "cell-based or functional assay"}, "[2]": {"target": "(5)M5+TE (module 5 of DEBS with its own N-terminal linker, fused to thioesterase) (UniProt Q03133)", "test": "cell-based or functional assay"}, "[3]": {"target": "(5)M2+TE (module 2 of DEBS with the N-terminal linker of module 5, fused to thioesterase) (UniProt Q03131)", "sequence (Q03131 other isoform, or with tags, fused parts or gaps)": "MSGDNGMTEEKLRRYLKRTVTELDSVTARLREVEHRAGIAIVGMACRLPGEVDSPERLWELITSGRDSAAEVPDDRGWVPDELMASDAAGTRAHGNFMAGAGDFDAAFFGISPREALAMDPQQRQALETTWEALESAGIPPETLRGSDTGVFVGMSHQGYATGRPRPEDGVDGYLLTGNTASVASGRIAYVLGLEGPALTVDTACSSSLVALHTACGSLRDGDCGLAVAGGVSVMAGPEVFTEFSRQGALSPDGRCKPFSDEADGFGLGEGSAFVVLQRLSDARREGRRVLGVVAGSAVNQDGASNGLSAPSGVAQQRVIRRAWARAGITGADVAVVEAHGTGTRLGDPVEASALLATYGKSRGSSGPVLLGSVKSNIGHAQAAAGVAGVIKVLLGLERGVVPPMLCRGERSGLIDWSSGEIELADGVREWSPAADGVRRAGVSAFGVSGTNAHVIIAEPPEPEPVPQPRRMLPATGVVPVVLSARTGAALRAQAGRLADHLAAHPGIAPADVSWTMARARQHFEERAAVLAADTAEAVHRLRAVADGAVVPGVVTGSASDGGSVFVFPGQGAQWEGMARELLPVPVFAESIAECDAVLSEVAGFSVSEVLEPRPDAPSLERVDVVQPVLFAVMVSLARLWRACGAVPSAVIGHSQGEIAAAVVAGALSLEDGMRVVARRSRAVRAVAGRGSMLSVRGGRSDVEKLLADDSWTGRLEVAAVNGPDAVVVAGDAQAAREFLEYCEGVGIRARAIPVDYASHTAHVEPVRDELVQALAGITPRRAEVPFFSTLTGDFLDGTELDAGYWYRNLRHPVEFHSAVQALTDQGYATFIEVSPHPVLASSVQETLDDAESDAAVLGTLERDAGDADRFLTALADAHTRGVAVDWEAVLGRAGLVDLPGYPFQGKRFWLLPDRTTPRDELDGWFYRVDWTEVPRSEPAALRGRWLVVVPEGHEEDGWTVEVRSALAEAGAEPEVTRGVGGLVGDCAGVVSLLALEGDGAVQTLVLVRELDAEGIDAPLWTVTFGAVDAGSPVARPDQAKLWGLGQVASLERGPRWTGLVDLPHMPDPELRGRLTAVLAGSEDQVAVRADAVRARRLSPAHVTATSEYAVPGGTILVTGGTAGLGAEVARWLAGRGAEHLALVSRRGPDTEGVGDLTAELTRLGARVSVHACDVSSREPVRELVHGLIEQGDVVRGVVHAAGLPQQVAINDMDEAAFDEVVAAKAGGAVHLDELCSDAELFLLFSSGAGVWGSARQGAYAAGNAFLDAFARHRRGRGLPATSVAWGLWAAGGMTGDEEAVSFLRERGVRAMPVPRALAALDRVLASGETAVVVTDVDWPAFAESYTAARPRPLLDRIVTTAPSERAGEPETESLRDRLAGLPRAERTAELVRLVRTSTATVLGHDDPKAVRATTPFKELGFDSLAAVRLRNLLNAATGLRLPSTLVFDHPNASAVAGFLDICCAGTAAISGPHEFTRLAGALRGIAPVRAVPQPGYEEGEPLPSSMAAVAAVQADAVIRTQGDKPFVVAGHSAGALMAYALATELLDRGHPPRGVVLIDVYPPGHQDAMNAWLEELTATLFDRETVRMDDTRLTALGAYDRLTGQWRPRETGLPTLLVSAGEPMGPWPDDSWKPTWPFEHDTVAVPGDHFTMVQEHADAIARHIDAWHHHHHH", "test": "cell-based or functional assay"}, "[4]": {"target": "(3)M5+TE (module 5 of DEBS with the N-terminal linker of module 3, fused to thioesterase) (UniProt Q03133)", "test": "cell-based or functional assay"}, "[5]": {"target": "M3+TE (module 3 of DEBS with its own N-terminal linker, fused to thioesterase) (UniProt Q03132)", "test": "estimated from the saturation curve of the rate of tetraketide formation against M3+TE concentration at fixed M2 (kinetic, in solution)"}, "[6]": {"target": "(5)M3+TE (module 3 of DEBS with the N-terminal linker of module 5, fused to thioesterase) (UniProt Q03132)", "test": "estimated from the saturation curve of the rate of tetraketide formation against (5)M3+TE concentration at fixed 0.5 µM M2(4) (kinetic, in solution)"}}}
{"substance": "diketide-ACP4(Ø) (DEBS ACP4 without linker, loaded with diketide) (from UniProt Q03132 3398-3488)", "values": [{"measurement": "k60 µM, fold decrease against diketide-ACP4(4) with the same module", "setting": "[1]", "value": 10, "unit": "fold"}, {"measurement": "k60 µM (FIG. 29 A)", "setting": "[2]", "value": 0.49, "unit": "min⁻¹"}, {"measurement": "k60 µM, fold decrease against diketide-ACP4(4) with the same module", "setting": "[3]", "value": 10, "unit": "fold"}, {"measurement": "k60 µM (FIG. 29 B)", "setting": "[4]", "value": 0.27, "unit": "min⁻¹"}]}
{"substance": "M2 (module 2 of DEBS with its natural C-terminal linker) (from UniProt Q03131 1982-3404; Q03131 3408-3491) (enzyme)", "values": [{"measurement": "Kd", "setting": "[5]", "value": 1.1, "unit": "µM"}]}
{"substance": "diketide-ACP2(4) (DEBS ACP2 with the C-terminal linker of module 4, loaded with diketide) (from UniProt Q03131 3320-3408; Q03132 3489-3567)", "values": [{"measurement": "k60 µM, fold decrease against the matched reaction (FIG. 28 C)", "setting": "[2]", "value": 20, "unit": "fold"}]}
{"substance": "diketide-ACP4(4) (DEBS ACP4 with its natural C-terminal linker, loaded with diketide) (from UniProt Q03132 3398-3567)", "values": [{"measurement": "maximal rate of elongation of 4a, fold increase against the NAC thioester 2a", "setting": "[2]", "value": "> 40", "unit": "fold"}, {"measurement": "k60 µM, fold decrease against the matched reaction (FIG. 28 B)", "setting": "[4]", "value": 20, "unit": "fold"}]}
{"substance": "diketide-NovH(4) (NovH fused to the C-terminal linker of DEBS module 4, loaded with diketide) (from UniProt Q03132 3489-3567)", "values": [{"measurement": "k60 µM", "setting": "[1]", "value": 0.53, "unit": "min⁻¹"}]}
{"substance": "M2(4) (module 2 of DEBS with the C-terminal linker of module 4) (from UniProt Q03131 1982-3404; Q03132 3489-3567) (enzyme)", "values": [{"measurement": "Kd", "setting": "[6]", "value": 2.1, "unit": "µM"}]}
